Assay results from publication PMC7239654, “R-spondins engage heparan sulfate proteoglycans to potentiate WNT signaling” (eLife, 2020).

Legend:
glycosylated GPC3 = target: T1, glycosylated GPC3 (Homo sapiens (assumed), UniProt P51654, heparan sulfate chains (glycosylated)); test: ELISA; 96-well plate coated with 5 μg/ml of the GPC protein; HS20 added in serial 2-fold dilutions starting from 1 μg/ml, 1 hr at RT; washed with PBST; detected with goat anti-human kappa chain HRP conjugate and TMB, absorbance at 450 nm; settings: both partners purified
T1 construct: glypican 3 (GPC3), glycosylated recombinant protein, R and D Systems Cat. # 2119-GP; also called glypican 3; source: bought: R and D Systems
T1 sequence (P51654 25-580): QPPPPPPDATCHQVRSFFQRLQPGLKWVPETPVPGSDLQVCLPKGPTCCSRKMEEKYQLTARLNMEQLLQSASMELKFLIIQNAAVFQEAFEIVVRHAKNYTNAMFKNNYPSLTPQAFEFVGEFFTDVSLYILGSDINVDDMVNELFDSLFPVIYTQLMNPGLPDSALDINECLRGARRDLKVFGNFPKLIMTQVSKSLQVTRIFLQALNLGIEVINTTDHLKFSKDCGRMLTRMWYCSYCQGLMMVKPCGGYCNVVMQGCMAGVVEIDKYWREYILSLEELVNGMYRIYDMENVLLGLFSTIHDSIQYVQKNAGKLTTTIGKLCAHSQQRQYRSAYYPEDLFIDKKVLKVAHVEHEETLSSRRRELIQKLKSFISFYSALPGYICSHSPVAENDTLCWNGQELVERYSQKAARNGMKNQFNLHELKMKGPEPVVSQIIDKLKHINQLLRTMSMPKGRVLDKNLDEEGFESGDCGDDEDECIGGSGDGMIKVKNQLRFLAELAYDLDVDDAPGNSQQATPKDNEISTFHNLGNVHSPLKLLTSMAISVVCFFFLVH

glycosylated GPC4 = target: T2, glycosylated GPC4 (Homo sapiens (assumed), UniProt O75487, heparan sulfate chains (glycosylated)); test: as above; settings: both partners purified
T2 construct: glypican 4 (GPC4), glycosylated recombinant protein, R and D Systems Cat. # 9195-GP; also called glypican 4; source: bought: R and D Systems
T2 sequence (O75487 19-529): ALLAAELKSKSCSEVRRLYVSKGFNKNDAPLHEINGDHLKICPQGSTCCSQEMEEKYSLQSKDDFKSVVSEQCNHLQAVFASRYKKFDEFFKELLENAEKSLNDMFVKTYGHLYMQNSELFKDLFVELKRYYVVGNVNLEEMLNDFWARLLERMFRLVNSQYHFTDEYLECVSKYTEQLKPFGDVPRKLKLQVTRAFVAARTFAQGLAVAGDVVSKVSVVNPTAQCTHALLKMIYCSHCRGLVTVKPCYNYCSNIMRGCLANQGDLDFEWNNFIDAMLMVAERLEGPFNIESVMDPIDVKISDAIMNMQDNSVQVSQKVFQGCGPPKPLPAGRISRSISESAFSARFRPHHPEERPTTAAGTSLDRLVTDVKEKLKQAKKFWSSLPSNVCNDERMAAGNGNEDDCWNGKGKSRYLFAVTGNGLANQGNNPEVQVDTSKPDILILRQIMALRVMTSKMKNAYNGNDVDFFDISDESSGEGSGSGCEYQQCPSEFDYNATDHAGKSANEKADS

binding result (glycosylated GPC3): binds | binding result (glycosylated GPC4): binds
B1: HS20 scFv (scFv, V domains shown)
VH: EVQLLESGGGLVQPGGSLRLSCAASGFTFSSYAMSWVRQAPGKGLEWVSTIQKQGLPTQYADSVKGRFTISRDNSKNTLYLQMNSLRAEDTAVYYCAKNRAKFDYWGQGTLVTVSS
VL: DIQMTQSPSSLSASVGDRVTITCRASQSISSYLNWYQQKPGKAPKLLIYAASMLQSGVPSRFSGSGSGTDFTLTISSLQPEDFATYYCQQNRGFPLTFGQGTKVEIK
notes: it was detected through its human kappa chain
